Measured values: publication PMC10080908

Target: RNF111 RING (Homo sapiens), Q6ZNA4
Sequence (Q6ZNA4 939-986): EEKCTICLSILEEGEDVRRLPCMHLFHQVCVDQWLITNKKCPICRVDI

Kd: 1 µM
B1: UBXN7 UAS, O94888 (protein)
chain: IDKKLTTLADLFRPPIDLMHKGSFETAKECGQMQNKWLMINIQNVQDFACQCLNRDVWSNEAVKNIIREHFIFWQVYHDSEEGQRYIQFYKLGDFPYVSILDPRTGQKLVEWHQLDVSSFLDQVTGFLGE
